Measurements as given in patent publication US20060253917A1 (published 2006).

T1: OsMADS45 aa 50-198 (Oryza sativa, UniProt P0C5B0 50-198)
T1 construct: bait, Gal4 DBD fusion; also called PN20231; O. sativa MADS box protein MADS45
T1 sequence: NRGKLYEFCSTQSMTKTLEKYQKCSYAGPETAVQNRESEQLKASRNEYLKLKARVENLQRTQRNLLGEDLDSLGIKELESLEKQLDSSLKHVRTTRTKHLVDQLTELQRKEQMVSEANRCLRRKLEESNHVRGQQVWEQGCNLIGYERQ

T2: OsHOS59 aa 1-100 (Oryza sativa, UniProt Q94LW4 113-212)
T2 construct: bait, Gal4 DBD fusion; also called PN20559; O. sativa Homeobox Protein HOS59, Fragment
T2 sequence: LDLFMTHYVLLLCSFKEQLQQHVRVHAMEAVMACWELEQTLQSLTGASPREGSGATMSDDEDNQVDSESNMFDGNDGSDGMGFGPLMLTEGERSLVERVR

T3: OsCS aa 316-583 (Oryza sativa, UniProt A2Y0X2 316-583)
T3 construct: bait, Gal4 DBD fusion; also called PN19707
T3 sequence: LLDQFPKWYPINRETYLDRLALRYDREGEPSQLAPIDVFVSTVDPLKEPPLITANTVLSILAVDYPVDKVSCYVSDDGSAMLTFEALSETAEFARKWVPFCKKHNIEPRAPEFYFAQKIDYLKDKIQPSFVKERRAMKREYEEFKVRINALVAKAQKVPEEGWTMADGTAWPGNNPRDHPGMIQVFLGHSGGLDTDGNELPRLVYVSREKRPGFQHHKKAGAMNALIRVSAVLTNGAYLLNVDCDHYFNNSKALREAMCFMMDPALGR

B1: OsMADS3 aa 48-177 (other)
chain: FSSRGRLYEYANNSVKSTVERYKKANSDTSNSGTVAEVNAQHYQQESSKLRQQISSLQNANSRTIVGDSINTMSLRDLKQVENRLEKGIAKIRARKNELLYAEVEYMQKREVELQNDNMYLRSKVVENER
notes: prey, AD fusion; also called PN20700; O. sativa MADS box protein MADS3
B2: OsMADS18 aa 82-154 (other)
chain: EPNTEDQENWGDEYGILKSKLDALQKSQRQLLGEQLDTLTTKELQQLEHQLEYSLKHIRSKKNQLLFESISEL
notes: prey, AD fusion; also called PN20912
B3: OsMADS15 aa 92-237 (other)
chain: CHEYRKLKAKIETIQKCHKHLMGEDHESLNLKELQQLEQQLESSLKHIISRKSHLMLESISELQKKERSLQEENKALQKELVERQKNVRGQQQVGQWDQTQVQAQAQAQPQAQTSSSSSSMLRDQQALLPPQNICYPPVMMGERND
notes: prey, AD fusion; also called PN20842; O. sativa MADS box protein MADS15
B4: OsMADS13 aa 75-263 (other)
chain: ACGSTSGAPLIEVNAQQYYQQESAKLRHQIQMLQNTNKHLVGDNVSNLSLKELKQLESRLEKGIAKIRARKNELLASEINYMAKREIELQNDNMDLRTKIAEEEQQLQQVTVARSAAMELQAAAAAQQQQQNPFAVAAAQLDMKCFFPLNLFEAAAQVQAVAAQRQQIIPTELNLGYHHHLAIPGATAA
notes: prey, AD fusion; also called PN20668; O. sativa MADS box protein MADS13
B5: OsFDRMADS6 aa 115-246 (other)
chain: EDLESLNLKELQQLEQQLENSLKHIRSRKSQLMLESINELQRKEKSLQEENKVLQKELVEKQKVQKQQVQWDQTQPQTSSSSSSFMMREALPTTNISNYPAAAGERIEDVAAGQPQHVRIGLPPWMLSHING
notes: prey, AD fusion; also called PN19766; O. sativa MADS-box protein FDRMADS6
B6: OsMADS18 aa 57-224 (other)
chain: FSSHSSMEGILERYQRYSFDERAVLEPNTEDQENWGDEYGILKSKLDALQKSQRQLLGEQLDTLTTKELQQLEHQLEYSLKHIRSKKNQLLFESISELQKKEKSLKNQNNVLQKLMETEKEKNNAIINTNREEQNGATPSTSSPTPVTAPDPIPTTNNSQSQPRGSGE
notes: prey, AD fusion; also called PN20912; O. sativa MADS box protein MADS18
B7: OsFDRMADS8 aa 63-186 (other)
chain: LQKTIDRYKAYTKDHVNNKTIQQDIQQVKDDTLGLAKKLEALDESRRKILGENLEGCSIEELRGLEMKLEKSLHNIRLKKTELLERQIAKLKEKERTLLKDNENLRGKHRNLEAAALVANHMTT
notes: prey, AD fusion; also called PN20698
B8: OsFDRMADS8 aa 104-233 (other)
chain: LDESRRKILGENLEGCSIEELRGLEMKLEKSLHNIRLKKTELLERQIAKLKEKERTLLKDNENLRGKHRNLEAAALVANHMTTTTAPAAWPRDVPMTSSTAGAADAMDVETDLYIGLPGTERSSNRSETG
notes: prey, AD fusion; also called PN20698; O. sativa MADS-box protein FDRMADS8
B9: OsMADS5 aa 113-225 (other)
chain: LLGEDLVPLSLKELEQLENQIEISLMNIRSSKNQQLLDQVFELKRKEQQLQDANKDLKRKIQETSGENMLHISCQDVGPSGHASEANQEFLHHAICDPSLHIGYQAYMDHLNQ
notes: prey, AD fusion; also called PN20770; O. sativa MADS box protein MADS5
B10: OsPN23388 aa 229-331 (other)
chain: LKTAKEKGLQRLVHLSSDLARQVATILENAQTFQENRKIGDVPSVNSNSSGVPSTQGEIDEIHQERQKFVEVAKKNVRDRRARRMQSCEVPIHPITPVKLMES
notes: prey, AD fusion; also called Novel Protein PN23388
B11: OsBAB07943 aa 525-767 (other)
chain: LADSLNKARSLIHPPVKKPSKLGENLTSLAAVVENEHKRLLARKSIIEKRKEDLERQILEKEKEEEKKRLSVLKKSAEDERIRLLNDVKLREQERIRRQLVEKEKIEAEELLQKQIKEIAKRGGKKPVLQGEVTKEAVMELAMNEQFKERQEMEKKLQKTGKQMDYLERAKRQEEAPLIEQAFQKRLEVEKILHEQEQLREIELSKQHHAGDLQEKNRLSRMLEHKNIFQERIVQRREAEFSR
notes: prey, AD fusion; also called PN23832; O. sativa Putative Eukaryotic Translation Initiation Factor 3 Large Subunit
B12: OsAAG13633 aa 799-951 (other)
chain: IRSLKFEYDNLKILMSTNDSEKHNLASQVLKLRRALESREDVKQNGVKSDEDNHHATSKRIKHDDGTTGSCNVLPSTNRHNANGDCNGHDRRDAAHDQSVKELEILKERNTALEEELKELHGRYSEISLKFAEVEGERQQLVMTVRALKNSLR
notes: prey, AD fusion; also called PN25701; O. sativa Putative Myosin
B13: OsPN23830 aa 4-207 (other)
chain: LEDFQASVEALPAMLQRNYSLMRELDKSLQGVQTGNEQRCQQEIEDIKHGLESGSITYDPAKLKFSDEAIEEQKHCVRIADEKVALASQTYDLVDAHIQQLDQFMRKLEELRQEKEAATTAAAAAAAAAASVATGTPVAATVTASAGTSTADNTPKGGRSSERGRGGRKKTAKVPTEQPAPAIDLELPVDPNEPTYCLCNQVSY
notes: prey, AD fusion; also called Novel Protein PN23830, Similar to A. thaliana Putative PHD-Finger Protein
B14: OsAAK00972 aa 236-350 (other)
chain: AEGGSKGEGVSSNPQESTANAAPEISAAEKQELQNKMAKLMAMLDEVDRKYKHYYHQMQIVVSSFDMVAGSGAAKPYTAVALQTISKHFRCLKDAINDQINVIRKKLGEEESSSG
notes: prey, AD fusion; also called PN23253; O. sativa Putative Homeodomain Protein OsAAK00972
B15: OsPN24092 aa 797-948 (other)
chain: SIKDQVQTYLEEINTLKSSKNEKEEMIERLQSEIRSLKFEYDNLKILMSTNDSEKHNLASQVLKLRRALESREDVKQNGVKSDEDNHHATSKRIKHDDGTTGSRNVLPSTNRHNANGDCNGHDRRDAAHDQSVKELEILKERNTALEEELKE
notes: prey, AD fusion; also called Novel Protein PN24092, Similar to O. sativa Putative Myosin
B16: OsPN23830 aa 1-169 (other)
chain: MGFLEDFQASVEALPAMLQRNYSLMRELDKSLQGVQTGNEQRCQQEIEDIKHGLESGSITYDPAKLKFSDEAIEEQKHCVRIADEKVALASQTYDLVDAHIQQLDQFMRKLEELRQEKEAATTAAAAAAAAAASVATGTPVAATVTASAGTSTADNTPKGGRSSERGRG
notes: prey, AD fusion
B17: OsPN23829 aa 2-226 (other)
chain: ALSVEKTSSGREYKVKDLSQADFGRLEIELAEVEMPGLMACRAEFGPSQPFKGARISGSLHMTIQTAVLIETLTALGAEVRWCSCNIFSTQDHAAAAIARDSAAVFAWKGETLEEYWWCTERCLDWGVGGGPDLIVDDGGDATLLIHEGVKAEEEFEKSGKVPDPESTDNAEFKIVLTIIRDGLKSDPSKYRKMKERLVGVSEETTTGVKRLYQMQETGALLFPA
notes: prey, AD fusion; also called Novel Protein PN23829 Putative S-Adenosyl-L-Homocysteine Hydrolase
B18: OsPN29117 prey clone -7-151 (other)
chain: MLVQRRDGDTGPAVRLRVSHGASFRDVAVPAHSTFGELKGVLTQATGVEPERQRLFFRGKEKSDNEFLHTAGVKDGAKLLLLEKPAPANVEQRAEPVIMDESMMKACEAVGRVRAEVDRLSAKVCDLEKSVFAGRKIEDKDFVVLTELLMM
notes: prey, AD fusion; clone includes a small portion (-7 to 0) of the 5' untranslated region; also called Novel Protein PN29117
B19: OsPN29115 aa 1-188 (other)
chain: VSFPYSPRPAALAAGARASRVSPVVVAAGGGHQRLMGSLTNTQGLRFGVVVARFNEIVTNLLLQGALETFERYSVKKENITVLSVPGSFEIPVAAQKLGKSGKFDANFVHWRCAFRGDTTHYGAVANSAASGVLSAGLSAEIPCIFGVLTCDDMDQALNRAGGKAGNKGAEAALTAIEMASLFQHHLA
notes: prey, AD fusion; also called Novel Protein PN29115, Fragment, Similar to A. thaliana 6,7-Dimethyl-8-Ribityllumazine Synthase Precursor
B20: OsPN29084 aa 1-253 (other)
chain: ESGIFRQILRGKLDLESDPWPSISDSAKDLVRNMLIRDPTKRFTAHEVLCHPWIVDDAVAPDKPIDSAVLSRLKHFSAMNKLKKMALRVIAESLSEEEIGGLKELFKMIDTDNSGTITYDELKNGLKRVGSDLMEPEIQALMDAADIDNSGTIDYGEFLAATLHMNKLEREENLVSAFTFFDKDGSGFITIDELSQACEQFGLSDVHLEDMIKDVDQNNDGQIDYSEFAAMMRKGNAGGANAGGVTSTGGTGR
notes: prey, AD fusion; also called Novel Protein PN29084, Fragment, Similar to Soybean Calcium-Dependent Protein Kinase
B21: OsPN29113 aa 1-92 (other)
chain: CKVSYIDAILGTTVKVPTVDGMVDLKIPSGTQPGTTLVMSKKGVPLLGKSNARGDQLVRVQVEIPKRLSSDERKLIEELANLNKAQTANSRR
notes: prey, AD fusion; also called O. sativa DNAJ Homologue
B22: OsPN29116 aa 1-169 (other)
chain: GRKPVAAQHYNKGDKDGTSTGSRCTSVAWVPEREGIFVVSHSDGNLYVYDKCKDGNTECTFPAIKDPAQLMISHAKSSKSNPIARWHVCQGSINAISFSPDGAYLATVGRDGYLRVFDFSKEQLIFGGKSYYGALLCCTWSSDGKYLLTGGEDDLVQVWSMDDRKIVAW
notes: prey, AD fusion; also called Novel Protein PN29116, Fragment

The binders below were run against T1, OsMADS45 aa 50-198 (assay: Y2H; output trait library).
Procedure, shortened: (§1)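 Protein-protein interactions were detected with an automated, high-throughput yeast two-hybrid assay provided by Myriad Genetics Inc. (Salt Lake City, Utah). A bait clone encoding a defined amino-acid fragment of a rice protein was screened against a rice prey library, either the input trait or the output trait library. Prey clones were retrieved, and their encoding sequences were compared by BLAST against databases to identify the interacting proteins.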
B1: binds.
B2: binds.
B3: binds.
B4: binds.
B5: binds.
B6: binds.
B7: binds.
B8: binds.
B9: binds.

The binders below were run against T2, OsHOS59 aa 1-100 (assay: Y2H; output trait library).
Procedure, shortened: as §1
B10: binds.
B11: binds.
B12: binds.
B13: binds.
B14: binds.
B15: binds.
B16: binds.
B17: binds.

These binders were tested against T3, OsCS aa 316-583 (assay: Y2H; output trait library).
Procedure, shortened: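 Rice protein fragments, each defined by an amino-acid range, served as bait against rice prey clone libraries in an automated, high-throughput yeast two-hybrid screen supplied by Myriad Genetics Inc. Prey clones that interacted were retrieved from the output trait library. The sequences encoding the retrieved fragments were compared against databases by BLAST analysis to identify the full-length genes. Each value records whether an interaction was detected.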
B18: binds.
B19: binds.
B20: binds.
B21: binds.
B22: binds.
